36 variants from the Human Domainome abundance scans (Beltran et al. 2025) can be followed below.

± gives the uncertainty stated by the source.

First the molecules themselves.
B1: POU domain, class 4, transcription factor 1, residues 266 to 347; numbered along this chain, Q01851 (parent)
chain: RELEAFAERFKQRRIKLGVTQADVGSALANLKIPGVGSLSQSTICRFESLTLSHNNMIALKPILQAWLEEAEGAQREKMNKP

In this series the parent is B1. Kind of series: abundance fitness (aPCA) (normalised: wild type 0, dead -1); higher = more abundant; growth selection in yeast, the domain comes from the species named. Particulars: Homo sapiens.
Take RDLEAFAERFKQRRIKLGVTQADVGSALANLKIPGVGSLSQSTICRFESLTLSHNNMIALKPILQAWLEEAEGAQREKMNKP [E2D]: the abundance fitness turned out to be 0.023 ± 0.039.
The figure for RTLEAFAERFKQRRIKLGVTQADVGSALANLKIPGVGSLSQSTICRFESLTLSHNNMIALKPILQAWLEEAEGAQREKMNKP [E2T] is -0.195 ± 0.039.
For RSLEAFAERFKQRRIKLGVTQADVGSALANLKIPGVGSLSQSTICRFESLTLSHNNMIALKPILQAWLEEAEGAQREKMNKP [E2S], the abundance fitness is -0.139 ± 0.03.
For RMLEAFAERFKQRRIKLGVTQADVGSALANLKIPGVGSLSQSTICRFESLTLSHNNMIALKPILQAWLEEAEGAQREKMNKP [E2M], the abundance fitness was -0.17 ± 0.036.
For RILEAFAERFKQRRIKLGVTQADVGSALANLKIPGVGSLSQSTICRFESLTLSHNNMIALKPILQAWLEEAEGAQREKMNKP [E2I], the abundance fitness was -0.266 ± 0.062.
Next, RLLEAFAERFKQRRIKLGVTQADVGSALANLKIPGVGSLSQSTICRFESLTLSHNNMIALKPILQAWLEEAEGAQREKMNKP [E2L]: -0.332 ± 0.032; RRLEAFAERFKQRRIKLGVTQADVGSALANLKIPGVGSLSQSTICRFESLTLSHNNMIALKPILQAWLEEAEGAQREKMNKP [E2R]: -0.266 ± 0.026; RALEAFAERFKQRRIKLGVTQADVGSALANLKIPGVGSLSQSTICRFESLTLSHNNMIALKPILQAWLEEAEGAQREKMNKP [E2A]: -0.267 ± 0.028.
The figure for RPLEAFAERFKQRRIKLGVTQADVGSALANLKIPGVGSLSQSTICRFESLTLSHNNMIALKPILQAWLEEAEGAQREKMNKP [E2P] is -0.437 ± 0.04; for RGLEAFAERFKQRRIKLGVTQADVGSALANLKIPGVGSLSQSTICRFESLTLSHNNMIALKPILQAWLEEAEGAQREKMNKP [E2G] it is -0.102 ± 0.023.
The figure for RVLEAFAERFKQRRIKLGVTQADVGSALANLKIPGVGSLSQSTICRFESLTLSHNNMIALKPILQAWLEEAEGAQREKMNKP [E2V] is -0.345 ± 0.029.
On to RQLEAFAERFKQRRIKLGVTQADVGSALANLKIPGVGSLSQSTICRFESLTLSHNNMIALKPILQAWLEEAEGAQREKMNKP [E2Q], for which the abundance fitness was -0.16 ± 0.033.
The figure for RWLEAFAERFKQRRIKLGVTQADVGSALANLKIPGVGSLSQSTICRFESLTLSHNNMIALKPILQAWLEEAEGAQREKMNKP [E2W] is -0.508 ± 0.038; for RFLEAFAERFKQRRIKLGVTQADVGSALANLKIPGVGSLSQSTICRFESLTLSHNNMIALKPILQAWLEEAEGAQREKMNKP [E2F] it is -0.245 ± 0.07; for RHLEAFAERFKQRRIKLGVTQADVGSALANLKIPGVGSLSQSTICRFESLTLSHNNMIALKPILQAWLEEAEGAQREKMNKP [E2H] it is -0.194 ± 0.048.
In the case of RNLEAFAERFKQRRIKLGVTQADVGSALANLKIPGVGSLSQSTICRFESLTLSHNNMIALKPILQAWLEEAEGAQREKMNKP [E2N], the abundance fitness was determined as 0.025 ± 0.049.
Next, RCLEAFAERFKQRRIKLGVTQADVGSALANLKIPGVGSLSQSTICRFESLTLSHNNMIALKPILQAWLEEAEGAQREKMNKP [E2C]: -0.306 ± 0.046.
The figure for RKLEAFAERFKQRRIKLGVTQADVGSALANLKIPGVGSLSQSTICRFESLTLSHNNMIALKPILQAWLEEAEGAQREKMNKP [E2K] is -0.069 ± 0.04; for RYLEAFAERFKQRRIKLGVTQADVGSALANLKIPGVGSLSQSTICRFESLTLSHNNMIALKPILQAWLEEAEGAQREKMNKP [E2Y] it is -0.236 ± 0.055; for REAEAFAERFKQRRIKLGVTQADVGSALANLKIPGVGSLSQSTICRFESLTLSHNNMIALKPILQAWLEEAEGAQREKMNKP [L3A] it is -0.162 ± 0.042.
As to RECEAFAERFKQRRIKLGVTQADVGSALANLKIPGVGSLSQSTICRFESLTLSHNNMIALKPILQAWLEEAEGAQREKMNKP [L3C], the abundance fitness was -0.901 ± 0.22.
The figure for IELEAFAERFKQRRIKLGVTQADVGSALANLKIPGVGSLSQSTICRFESLTLSHNNMIALKPILQAWLEEAEGAQREKMNKP [R1I] is 0.039 ± 0.067; for MELEAFAERFKQRRIKLGVTQADVGSALANLKIPGVGSLSQSTICRFESLTLSHNNMIALKPILQAWLEEAEGAQREKMNKP [R1M] it is 0.004 ± 0.045.
Next, GELEAFAERFKQRRIKLGVTQADVGSALANLKIPGVGSLSQSTICRFESLTLSHNNMIALKPILQAWLEEAEGAQREKMNKP [R1G]: -0.05 ± 0.023; AELEAFAERFKQRRIKLGVTQADVGSALANLKIPGVGSLSQSTICRFESLTLSHNNMIALKPILQAWLEEAEGAQREKMNKP [R1A]: -0.132 ± 0.042.
Next, TELEAFAERFKQRRIKLGVTQADVGSALANLKIPGVGSLSQSTICRFESLTLSHNNMIALKPILQAWLEEAEGAQREKMNKP [R1T]: -0.011 ± 0.04; QELEAFAERFKQRRIKLGVTQADVGSALANLKIPGVGSLSQSTICRFESLTLSHNNMIALKPILQAWLEEAEGAQREKMNKP [R1Q]: -0.325 ± 0.17.
As to DELEAFAERFKQRRIKLGVTQADVGSALANLKIPGVGSLSQSTICRFESLTLSHNNMIALKPILQAWLEEAEGAQREKMNKP [R1D], the abundance fitness came to 0.008 ± 0.066.
Turning to SELEAFAERFKQRRIKLGVTQADVGSALANLKIPGVGSLSQSTICRFESLTLSHNNMIALKPILQAWLEEAEGAQREKMNKP [R1S], the abundance fitness is -0.026 ± 0.033.
The figure for HELEAFAERFKQRRIKLGVTQADVGSALANLKIPGVGSLSQSTICRFESLTLSHNNMIALKPILQAWLEEAEGAQREKMNKP [R1H] is -0.326 ± 0.18; for NELEAFAERFKQRRIKLGVTQADVGSALANLKIPGVGSLSQSTICRFESLTLSHNNMIALKPILQAWLEEAEGAQREKMNKP [R1N] it is 0.02 ± 0.05.
The figure for FELEAFAERFKQRRIKLGVTQADVGSALANLKIPGVGSLSQSTICRFESLTLSHNNMIALKPILQAWLEEAEGAQREKMNKP [R1F] is 0.028 ± 0.12; for WELEAFAERFKQRRIKLGVTQADVGSALANLKIPGVGSLSQSTICRFESLTLSHNNMIALKPILQAWLEEAEGAQREKMNKP [R1W] it is -0.134 ± 0.033.
Take YELEAFAERFKQRRIKLGVTQADVGSALANLKIPGVGSLSQSTICRFESLTLSHNNMIALKPILQAWLEEAEGAQREKMNKP [R1Y]: the abundance fitness is -0.076 ± 0.085.
Next, CELEAFAERFKQRRIKLGVTQADVGSALANLKIPGVGSLSQSTICRFESLTLSHNNMIALKPILQAWLEEAEGAQREKMNKP [R1C]: -0.053 ± 0.038.
For EELEAFAERFKQRRIKLGVTQADVGSALANLKIPGVGSLSQSTICRFESLTLSHNNMIALKPILQAWLEEAEGAQREKMNKP [R1E], the abundance fitness is 0.007 ± 0.052.
